{
  "source": "patent US7507538B2",
  "about": "“Human papilloma virus immunoreactive peptides” (priority 2001, dated 2009)",
  "key": {"[1]": {"tested_on": "autologous PBMC pulsed with HPV-16E6 or HPV-18E6 peptides", "test": "51Cr release lysis of peptide-pulsed autologous PBMC by lymphocytes stimulated in vitro with peptide", "assay_type": "cell-based, human", "settings": "lymphocytes of an HLA-A2 patient, peptide at 10 μm for 1-3 weeks, FIG. 2", "procedure": "To determine if lymphocytes stimulated in vitro with either the HPV-18E6 peptide (SEQ ID NO. 1) or the HPV-16E6 peptide (SEQ ID NO. 10) would recognize and lyse peripheral blood mononuclear cells (PBMCs) pulsed with these peptides, the following experiment was performed. Lymphocytes isolated from a patient known to carry and express the HLA-A2 allele were stimulated in vitro (IVS) with either the HPV-18E6 peptide (SEQ ID NO. 1) or the HPV-16E6 peptide (SEQ ID NO. 10) at a 10 μm concentration for 1-3 weeks. Autologous PBMC target cells were radiolabeled with ^51Cr and pulsed with either the HPV-18E6 peptide (SEQ ID NO. 1) or the HPV-16E6 peptide (SEQ ID NO. 10). Each of the IVS lymphocyte populations were then mixed with each of the pulsed and labeled PBMC target cells and specific lysis was measured. Lymphocytes IVS with either the HPV-18E6 peptide (SEQ ID NO. 1) or the HPV-16E6 peptide (SEQ ID NO. 10) were able to lyse PBMCs which were pulsed with either the HPV-18E6 peptide (SEQ ID NO. 1) or the HPV-16E6 peptide (SEQ ID NO. 10) and had either the HPV-18E6 peptide (SEQ ID NO. 1) or the HPV-16E6 (SEQ ID NO. 10) peptide on their cell surface.\nT cell cytotoxicity is measured by the standard ^51Cr-release assay. Briefly, target cells are radiolabeled with Na2 ^51CrO4. The patient's PBMC (which have been previously stimulated with an HPV peptide of Example 1 at 10 μm concentration for 1 to 3 weeks) are added to the labeled target cells in the presence or absence of the peptide. Cell lysis is determined by the specific release of ^51Cr (specific lysis). Target cells are autologous B-LCL or T2 cells pulsed with the peptide. If there is a detectable pre-immunization specific lysis, a 2.0 fold increase in the lytic units will be considered a positive response. If there is no detectable pre-immunization specific lysis, a post-immunization specific lysis of […] 10% above the controls will be considered a positive response."}, "HLA-A2 molecule": {"target": "T1, HLA-A2 molecule (Homo sapiens, UniProt P04439, D140Y/D185E/D98H/E176V/E277Q/G131W/G231S/I119V/I121R/I166T/I218V/L300P/L318F/N151K/N90K/P208A/P217A/Q86G/Q94H/R138H/R169H/T345S)", "T1 construct": "endogenous in cells; host or cells: T2A2 cells", "test": "Binding of fluorescently labeled peptide to T2A2 cells", "settings": "for affinity for HLA-A2 relative to the other peptides tested / binding to the HLA-A2 molecules on the surface of T2A2 cells: FIG. 1; for binding to the HLA-A2 molecules on the surface of T2A2 cells: fluorescently labeled peptide"}},
  "note": "Entries after “also recorded” stand apart in the source; their conditions may differ.",
  "data": [
    {"sequence": "KLPDLCTEL", "values": [
      {"measurement": "specific lysis of autologous PBMC pulsed with either HPV-18E6 or HPV-16E6 peptide by lymphocytes stimulated in vitro with the peptide", "setting": "[1]; listed as HPV-18E6 peptide", "result": "able to lyse; also recorded: able to elicit an immune response"},
      {"measurement": "specific lysis of autologous PBMC pulsed with either HPV-18E6 or HPV-16E6 peptide by lymphocytes stimulated in vitro with the peptide", "setting": "[1]; listed as HPV-18E6 peptides", "result": "specifically lyse"},
      {"measurement": "fold higher affinity for the HLA-A2 molecule than the homologous HPV-16E6 peptide KLPQLCTEL", "setting": "HLA-A2 molecule; T2A2 cells", "result": "approximately 100 fold"},
      {"measurement": "affinity for HLA-A2 relative to the other peptides tested", "setting": "HLA-A2 molecule; T2A2 cells", "result": "higher affinity than did either the FMP peptide or the homologous peptide from the HPV-16E6 protein"},
      {"measurement": "affinity for HLA-A2 relative to the other peptides tested", "setting": "HLA-A2 molecule; T2A2 cells, listed as HPV-18E6 (13-21) peptide", "result": "higher than the homologous HPV-16E6 peptide"},
      {"measurement": "binding to the HLA-A2 molecules on the surface of T2A2 cells", "setting": "HLA-A2 molecule", "result": "bound"},
      {"measurement": "binding to the HLA-A2 molecules on the surface of T2A2 cells", "setting": "HLA-A2 molecule; listed as HPV-18E6 (13-21) peptide", "result": "high affinity"},
      {"measurement": "binding to the HLA-A2 molecules on the surface of T2A2 cells", "setting": "HLA-A2 molecule; listed as HPV-18E6 peptide", "result": "able to bind"}
    ]},
    {"sequence": "KLPQLCTEL [homologous peptide from the HPV-16E6 protein (amino acids 13-21), reference compound]", "values": [
      {"measurement": "specific lysis of autologous PBMC pulsed with either HPV-18E6 or HPV-16E6 peptide by lymphocytes stimulated in vitro with the peptide", "setting": "[1]; listed as HPV-16E6 peptide", "result": "able to lyse"},
      {"measurement": "specific lysis of autologous PBMC pulsed with either HPV-18E6 or HPV-16E6 peptide by lymphocytes stimulated in vitro with the peptide", "setting": "[1]; listed as HPV-16E6 peptides", "result": "lyse"}
    ]}
  ]
}
